# Reference: IntAct's records for PubMed 26280580
# B1: Ras-related protein Rap-1A (Homo sapiens), P62834 (parent)
# chain: MREYKLVVLGSGGVGKSALTVQFVQGIFVEKYDPTIEDSYRKQVEVDCQQCMLEILDTAGTEQFTAMRDLYMKNGQGFALVYSITAQSTFNDLQDLREQILRVKDTEDVPMILVGNKCDLEDERVVGKEQGQNLARQWCNCAFLESSAKSKINVNEIFYDLVRQINRKTPVEKKKPKKKSCLLL
# Variants of: B1
# Details: with braf_human BRAF
row,effect of a mutation on the interaction,Variant
1,with no effect,R163T
